Data: patent US20260027190A1, “OVARIAN TUMOR DEUBIQUITINASE OXIDATION AND USES THEREOF” (The University of Vermont and State Agricultural College, priority 2022, published 2026)

What was measured:
Format in all cases: cell-based
KRAS-mutant A549 cells = test: A549 cell viability / cisplatin-induced killing
OTUB1 and UBCH5A = test: Interaction between OTUB1 and UBCH5A; conditions: FIG. 14D
Text: OTUB1 was previously shown to interfere with ubiquitination and subsequent proteasomal degradation of SLC7A11. Overexpression of OTUB1 decreased ubiquitinated SLC7A11 (FIG. 17). […] The OTUB1-mediated attenuation of ubiquitination can occur through multiple mechanisms. OTUB1 can act as a canonical deubiquitinase that cleaves K48 chains. Alternatively, OTUB1 also can inhibit the function of E2 conjugating enzymes, including UBCH5 and OTUB1 has been found in a complex with E2 enzymes. Additionally, binding of E2 enzymes to OTUB1 can also promote OTUB1 deubiquitinase activity dependent on the ratio of ubiquitin-charged E2 to uncharged E2 enzyme and levels of free ubiquitin. OTUB1 D88 binds E2 enzymes and suppresses Ub-conjugating activity. Stabilization of SLC7A11 by OTUB1 has been speculated to involve directly binding between OTUB1 and SLC7A11 as well as the inhibition of E2 enzymes. […] These collective observations, along with observed increases in GSH following expression of OTUB1-C91S (FIG. 6C) support a non-canonical role of OTUB1 in augmenting GSH. […] To address this possible scenario, the present disclosure determined whether OTUB1-S-glutathionylation affected the interaction between OTUB1 and UBCH5A which requires the N-terminal region containing C23. […]

SLC7A11 = SLC7A11 levels in H522 LUAD cells; conditions: administration of GLRX to H522 LUAD cells
Description: Bio-Rad DC protein estimation kit was used to determine protein concentration in cell lysates. Equal amounts of proteins were resolved using sodium dodecyl sulfate (SDS)-polyacrylamide gel electrophoresis and transferred to polyvinylidene difluoride (PVDF) membranes, blocked in 5% BSA and incubated with primary antibodies overnight. Membranes were subsequently incubated with peroxidase-conjugated secondary antibodies for one hour and then visualized using chemiluminescence.

[1] = system: mouse tracheal epithelial (MTE) cells; test: Total PSSG in MTE cells treated with recombinant GLRX; conditions: direct administration of recombinant protein to MTE cells
Description: OTUB1 was one of the PSSG targets detected in IL1B-stimulated epithelial cells raising the possibility that S-glutathionylation of OTUB1 affects the stability of SLC7A11. To investigate this, immunoprecipitation of GSH followed by Western Blotting of OTUB1 in MTE cells treated with vehicle or IL1B was performed. Dithiothreitol (DTT) was incubated with cell lysates prior to immunoprecipitation as a negative control. OTUB1 levels from whole cell lysates were used as the input control. Increases in OTUB1 S-glutathionylation (OTUB1-SSG) in response to IL1B were observed, with further increases occurring in cells lacking Glrx (FIG. 4G), consistent with the role of GLRX as a deglutathionylating enzyme. Western blots were performed using cells treated with the WT- or C23S-mutant GLRX recombinant protein to examine the presence of glutaredoxin (FIG. 4H) and total PSSG (FIG. 4I) (P-value*<0.05, **<0.01, ***<0.001, ****<0.0001). […] Glutathione was evaluated in MTE cells treated with recombinant WT- or C23S-mutant GLRX (FIG. 4J) and glutamate in cell culture supernatant of MTE cells treated with WT or the C23S mutant GLRX was also evaluated (FIG. 4K). […]
Cell lysates were prepared in 100 mM potassium phosphate buffer containing 0.6% sulfosalicylic acid, 1 mM ethylenediaminetetraacetic acid (EDTA) and 0.01% triton-x-100. […] Kinetic absorbance was measured every minute at 412 nm for 20 minutes. […]

human LUAD organoids = test: Human LUAD organoid viability / cisplatin-induced killing
Text: To date, the first line therapy for advanced KRAS-mutant lung adenocarcinoma (LUAD) consists of platinum-based chemotherapy in combination with the immune checkpoint inhibitor, pembrolizumab, or pembrolizumab alone in patients whose tumors have PD-L1 expression equal or greater than 50%. […] However, tumor resistance to platinum and toxicity is limited in its effectiveness, necessitating the development of strategies to increase sensitivity to cisplatin-induced killing and increase responsiveness to immune checkpoint inhibitors. Increases in GSH contribute to resistance of cisplatin-induced killing. In one study we administered 20 μg/ml of GLRX to human LUAD organoids in the presence or absence of cisplatin.

H522 cells = test: Synergy of GLRX and cisplatin in killing of H522 cells (Synergy Finder); conditions: Chou-Talalay method (Synergy Finder)

B1: GLRX: recombinant wild-type glutaredoxin protein, deglutathionylating enzyme, administered directly to cells (protein, UniProt P35754 2-106, looked up)
Glutaredoxin-1: AQEFVNCKIQPGKVVVFIKPTCPYCRRAQEILSQLPIKQGLLEFVDITATNHTNEIQDYLQQLTGARTVPRVFIGKDCIGGCSDLVSLQQSGELLTRLKQIGALQ
KRAS-mutant A549 cells; GLRX alone
  viability: did not decrease
KRAS-mutant A549 cells; GLRX with cisplatin
  cisplatin-induced killing: promoted
OTUB1 and UBCH5A
  interaction between OTUB1 and UBCH5A: decreases
SLC7A11
  SLC7A11 levels: decreased
[1]
  overall PSSG: decreased
Human LUAD organoids; 20 μg/ml GLRX alone
  viability of human LUAD organoids: did not affect
Human LUAD organoids; 20 μg/ml GLRX with cisplatin, compared to cisplatin only
  sensitivity to cisplatin-induced tumor organoid killing: strongly increased
H522 cells
  synergy with cisplatin (ZIP Score): > 10
